Measured values: article doi:10.1101/2021.08.02.454546 (2021)

Biological target: CV3–25 IgG
Experiment: SPR

CV3–25 IgG, sequence (VH, as listed by the source, chain 1 of 2): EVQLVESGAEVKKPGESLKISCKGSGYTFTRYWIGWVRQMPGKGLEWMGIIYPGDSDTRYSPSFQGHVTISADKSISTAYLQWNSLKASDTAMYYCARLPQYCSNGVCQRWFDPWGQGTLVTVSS
CV3–25 IgG, sequence (VL, as listed by the source, chain 2 of 2): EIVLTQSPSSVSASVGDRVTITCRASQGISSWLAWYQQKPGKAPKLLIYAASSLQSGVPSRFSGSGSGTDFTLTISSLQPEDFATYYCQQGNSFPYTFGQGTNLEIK

Binder	koff [s⁻¹]
DKYFKNHTSPDVDLG [SARS-CoV-2 S2 peptide #289 (1153-DKYFKNHTSPDVDLG-1167)]	0.0319
DKYFKNHTSPD [shorter version of peptide #289 (1153-DKYFKNHTSPD-1163)]	0.0761
